{
  "source": "paper PMC3581539",
  "about": "“Biochemical and Mutational Analysis of a Novel Nicotinamidase from Oceanobacillus iheyensis HTE831” (PLoS ONE, 2013)",
  "molecules": {"B1": {"name": "nicotinamidase (OiNIC) (Oceanobacillus iheyensis HTE831) (protein)", "chain": "MKKKALLNIDYTIDFVAEDGALTTGKPGQAIESKIVQITKAFADQGDYVVFAIDAHQPDDEYHPEQQLFPPHNIVGTKGRQLFGELETLYQRIKEQENVYYFDKTRYSAFAGTDLELKLRERGIEEVHLVGVCTDICVLHTAVDAYNKGFRIVIHQDAVASFNQVGHEWALGHFEQSIGAEVR"}},
  "key": {"NC(=O)c1cnccn1": {"tested_on": "NC(=O)c1cnccn1", "experiment": "steady-state kinetics (Km), GDH-coupled spectrophotometric assay", "assay_type": "biochemical, Oceanobacillus iheyensis"}, "NC(=O)c1cccnc1": {"tested_on": "NC(=O)c1cccnc1", "experiment": "steady-state kinetics (Km), GDH-coupled spectrophotometric assay", "assay_type": "biochemical, Oceanobacillus iheyensis", "settings": "Zn2+ active site"}, "nicotinamidase (OiNIC)": {"target": "T1, nicotinamidase (OiNIC) (Oceanobacillus iheyensis, UniProt Q8ESQ6)", "T1 construct": "gene OB0565", "T1 sequence (Q8ESQ6 1-183)": "B1 chain"}, "[1]": {"substrate": "Cc1cncc(C(N)=O)c1", "experiment": "steady-state kinetics (Km), GDH-coupled spectrophotometric assay", "assay_type": "biochemical, Oceanobacillus iheyensis", "settings": "Zn2+"}, "[2]": {"substrate": "NC(=O)c1cnccn1", "experiment": "steady-state kinetics (Km), GDH-coupled spectrophotometric assay", "assay_type": "biochemical, Oceanobacillus iheyensis", "settings": "Zn2+ active site"}, "[3]": {"substrate": "CCOC(=O)c1cccnc1", "experiment": "steady-state kinetics (Km), HPLC", "assay_type": "biochemical, Oceanobacillus iheyensis", "settings": "Zn2+"}, "[4]": {"substrate": "COC(=O)c1cccnc1", "experiment": "steady-state kinetics (Km), HPLC", "assay_type": "biochemical, Oceanobacillus iheyensis", "settings": "Zn2+"}, "[5]": {"substrate": "NC(=O)c1cccnc1", "experiment": "steady-state kinetics (Km), HPLC and GDH-coupled assay", "assay_type": "biochemical, Oceanobacillus iheyensis", "settings": "Zn2+ active site"}},
  "data": [
    {"molecule": "nicotinamidase (OiNIC) (Oceanobacillus iheyensis HTE831; C133A)", "values": [
      {"measurement": "Km", "setting": "NC(=O)c1cnccn1; Zn2+ active site", "result": "360 ± 20", "unit": "µM"},
      {"measurement": "kcat", "setting": "NC(=O)c1cnccn1; Zn2+ active site", "result": "3.31 ± 0.1", "unit": "s⁻¹"},
      {"measurement": "kcat/Km", "setting": "NC(=O)c1cnccn1; Zn2+ active site", "result": 9190, "unit": "M⁻¹ s⁻¹"}
    ]},
    {"molecule": "nicotinamidase (OiNIC) (Oceanobacillus iheyensis HTE831; F69W)", "values": [
      {"measurement": "Km", "setting": "NC(=O)c1cnccn1; Zn2+ active site cavity", "result": "500 ± 20", "unit": "µM"},
      {"measurement": "kcat", "setting": "NC(=O)c1cnccn1; Zn2+ active site cavity", "result": "3.94 ± 0.1", "unit": "s⁻¹"},
      {"measurement": "kcat/Km", "setting": "NC(=O)c1cnccn1; Zn2+ active site cavity", "result": 7900, "unit": "M⁻¹ s⁻¹"}
    ]},
    {"molecule": "nicotinamidase (OiNIC) (Oceanobacillus iheyensis HTE831; E65H)", "values": [
      {"measurement": "Km", "setting": "NC(=O)c1cccnc1", "result": "130 ± 10", "unit": "µM"},
      {"measurement": "kcat", "setting": "NC(=O)c1cccnc1", "result": "5.63 ± 0.2", "unit": "s⁻¹"},
      {"measurement": "kcat/Km", "setting": "NC(=O)c1cccnc1", "result": 42600, "unit": "M⁻¹ s⁻¹"}
    ]},
    {"molecule": "O=Cc1cccnc1", "note": "[nicotinaldehyde]", "values": [
      {"measurement": "Ki", "setting": "nicotinamidase (OiNIC)", "result": 3.4, "unit": "µM"}
    ]},
    {"molecule": "B1", "values": [
      {"measurement": "Km", "setting": "[1]", "result": "680 ± 20", "unit": "µM"},
      {"measurement": "kcat", "setting": "[1]", "result": "5.1 ± 0.02", "unit": "s⁻¹"},
      {"measurement": "kcat/Km", "setting": "[1]", "result": 7500, "unit": "M⁻¹ s⁻¹"},
      {"measurement": "Km", "setting": "[2]", "result": "810 ± 10", "unit": "µM"},
      {"measurement": "kcat", "setting": "[2]", "result": "2.6 ± 0.1", "unit": "s⁻¹"},
      {"measurement": "kcat/Km", "setting": "[2]", "result": 3200, "unit": "M⁻¹ s⁻¹"},
      {"measurement": "Km", "setting": "[3]", "result": "1020 ± 10", "unit": "µM"},
      {"measurement": "kcat", "setting": "[3]", "result": "0.1 ± 0.01", "unit": "s⁻¹"},
      {"measurement": "kcat/Km", "setting": "[3]", "result": 100, "unit": "M⁻¹ s⁻¹"},
      {"measurement": "Km", "setting": "[4]", "result": "1030 ± 10", "unit": "µM"},
      {"measurement": "kcat", "setting": "[4]", "result": "0.32 ± 0.02", "unit": "s⁻¹"},
      {"measurement": "kcat/Km", "setting": "[4]", "result": 310, "unit": "M⁻¹ s⁻¹"},
      {"measurement": "Km", "setting": "[5]", "result": "260 ± 20", "unit": "µM"},
      {"measurement": "kcat", "setting": "[5]", "result": "11.65 ± 0.1", "unit": "s⁻¹"},
      {"measurement": "kcat/Km", "setting": "[5]", "result": 43500, "unit": "M⁻¹ s⁻¹"}
    ]}
  ]
}
